Values belong to the binder of their own block, whether it stands above or below them.
Experiments:
[1] = biological target: T1, monkey CD3D&3E (ACRO, CDD-C52W4) (cynomolgus monkey, UniProt Q95LI8 22-105; Q95LI5 22-117); assay: SPR Biacore 8K, Ab captured on Protein A
T1 construct: bought CD3 delta/epsilon protein; also called cynomolgus monkey CD3
Summary of the method: (§1)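 Antibodies captured on a Protein A chip for 18 s; DLL3 or CD3D&3E antigen flowed 180 s, then 600 s dissociation, with real-time detection. Regeneration used 10 mM glycine-HCl pH 1.5 between cycles. Kinetics were obtained by 1:1 model fitting.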

[2] = biological target: T2, mouse DLL3 (KACTUS, DLL-MM103) (mouse, UniProt O88516 33-490, limits assumed); assay: SPR Biacore 8K, Ab captured on Protein A
T2 construct: Bought
T2 sequence: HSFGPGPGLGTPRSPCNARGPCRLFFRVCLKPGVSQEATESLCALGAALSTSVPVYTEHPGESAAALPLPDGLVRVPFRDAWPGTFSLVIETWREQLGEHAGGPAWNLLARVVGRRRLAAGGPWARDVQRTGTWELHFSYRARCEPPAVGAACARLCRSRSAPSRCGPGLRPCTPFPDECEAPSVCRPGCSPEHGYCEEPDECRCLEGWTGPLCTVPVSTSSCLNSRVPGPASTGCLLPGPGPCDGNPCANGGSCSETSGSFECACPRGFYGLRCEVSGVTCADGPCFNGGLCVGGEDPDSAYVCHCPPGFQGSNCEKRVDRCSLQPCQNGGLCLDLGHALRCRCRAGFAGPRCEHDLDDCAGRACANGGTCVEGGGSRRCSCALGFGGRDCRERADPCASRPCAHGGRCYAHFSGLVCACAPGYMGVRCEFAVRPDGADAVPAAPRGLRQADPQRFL
Summary of the method: as §1

[3] = biological target: T3, human DLL3 (ACRO, DLL3-H52H4) (human, UniProt Q9NYJ7 27-492); assay: SPR Biacore 8K, Ab captured on Protein A
T3 construct: Bought
T3 sequence: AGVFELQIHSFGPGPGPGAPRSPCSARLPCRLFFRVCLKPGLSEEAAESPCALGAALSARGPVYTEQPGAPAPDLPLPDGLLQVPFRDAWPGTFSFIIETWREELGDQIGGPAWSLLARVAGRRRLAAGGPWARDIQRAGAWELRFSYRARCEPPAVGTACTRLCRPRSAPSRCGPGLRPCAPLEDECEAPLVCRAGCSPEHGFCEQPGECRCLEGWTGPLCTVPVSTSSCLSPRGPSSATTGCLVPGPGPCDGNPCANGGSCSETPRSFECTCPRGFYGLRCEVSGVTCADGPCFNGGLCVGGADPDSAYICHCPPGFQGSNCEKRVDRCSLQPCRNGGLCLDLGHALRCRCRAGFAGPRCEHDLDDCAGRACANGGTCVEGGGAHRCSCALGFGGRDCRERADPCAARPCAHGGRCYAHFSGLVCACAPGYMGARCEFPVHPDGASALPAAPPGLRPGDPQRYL
Summary of the method: as §1

[4] = biological target: T4, cynomolgus monkey DLL3 (KACTUS, DLL-RM103) (cynomolgus monkey, UniProt Q9NYJ7 27-492 (human entry), limits assumed); assay: SPR Biacore 8K, Ab captured on Protein A
T4 construct: Bought
T4 chain: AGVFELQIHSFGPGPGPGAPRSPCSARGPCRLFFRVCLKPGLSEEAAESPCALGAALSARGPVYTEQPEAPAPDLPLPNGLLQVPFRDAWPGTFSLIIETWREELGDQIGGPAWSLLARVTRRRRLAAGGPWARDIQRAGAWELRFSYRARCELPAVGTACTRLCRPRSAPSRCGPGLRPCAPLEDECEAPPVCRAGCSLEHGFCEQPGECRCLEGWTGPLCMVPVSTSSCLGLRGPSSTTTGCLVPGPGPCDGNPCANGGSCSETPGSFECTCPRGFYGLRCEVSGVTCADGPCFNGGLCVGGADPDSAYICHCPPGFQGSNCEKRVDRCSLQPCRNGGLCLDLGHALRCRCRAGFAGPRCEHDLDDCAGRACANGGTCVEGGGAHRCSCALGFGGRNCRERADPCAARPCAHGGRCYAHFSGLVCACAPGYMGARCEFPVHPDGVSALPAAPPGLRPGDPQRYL
Summary of the method: as §1

DLL4 (ACRO, DL4-H5227) = biological target: T5, DLL4 (ACRO, DL4-H5227) (human, UniProt Q9NR61 27-524); assay: ELISA, DLL4 coated at 1 µg/mL, detection with anti-human IgG (H+L)-HRP, OD450
T5 construct: Bought; also called human DLL4
Method: DLL1 (ACRO, DL1-H52H8, 1 μg/mL) and DLL4 (ACRO, DL4-H5227, 1 μg/mL) were plated at 100 μL/well, and the plates were incubated overnight at 4° C. The plates were washed 3 times with 250 μL of PBST solution (PBS containing 0.1% Tween 20) per well. The plates were blocked with 250 μL of 5% milk per well at 37° C. for 2 h. The plates were washed 3 times with 250 μL of PBST solution per well. Test antibodies (maximum concentration 100 nM, serially diluted 4-fold) were added, and the plates were incubated at 37° C. for 1 h. The plates were washed 6 times with 250 μL of PBST solution per well. […] The plates were washed 6 times with 250 μL of PBST solution per well. TMB (KPL, 5120-0077) substrate solution was added at 100 μL/well, and color development was performed at room temperature for 5-10 min. 1 M H₂SO₄ was added at 100 μL/well to stop the color development, and microplate reader (Molecular Devices, VERSA max) readings at 450 nm were taken.

T5 sequence (Q9NR61 27-524 limits assumed): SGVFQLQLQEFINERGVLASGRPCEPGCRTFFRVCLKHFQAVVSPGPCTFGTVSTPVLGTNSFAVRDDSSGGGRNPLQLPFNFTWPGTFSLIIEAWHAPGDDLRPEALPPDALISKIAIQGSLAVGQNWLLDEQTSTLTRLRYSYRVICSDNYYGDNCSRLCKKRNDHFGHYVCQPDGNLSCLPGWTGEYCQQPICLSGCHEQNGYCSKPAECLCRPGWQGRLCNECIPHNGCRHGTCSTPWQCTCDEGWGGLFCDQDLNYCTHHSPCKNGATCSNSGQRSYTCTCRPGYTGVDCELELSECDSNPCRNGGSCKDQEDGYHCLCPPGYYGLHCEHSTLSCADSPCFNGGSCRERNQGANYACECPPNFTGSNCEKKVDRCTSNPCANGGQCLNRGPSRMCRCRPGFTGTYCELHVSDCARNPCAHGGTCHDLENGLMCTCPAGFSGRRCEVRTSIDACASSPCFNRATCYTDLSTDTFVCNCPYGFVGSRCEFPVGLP
T1 sequence (Q95LI8 22-105, chain 1 of 2): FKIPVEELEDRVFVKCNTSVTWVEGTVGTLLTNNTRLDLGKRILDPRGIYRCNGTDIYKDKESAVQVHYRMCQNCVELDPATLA
T1 sequence (Q95LI5 22-117, chain 2 of 2): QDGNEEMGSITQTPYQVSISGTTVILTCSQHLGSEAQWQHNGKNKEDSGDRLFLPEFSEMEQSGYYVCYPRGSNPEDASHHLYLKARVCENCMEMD

Kd [1]: 2320 pM
binding result [2]: no binding
Kd [3]: 125 pM
Kd [4]: 762 pM
B1: hu110-I2C-Y body (bispecific antibody)
light: NIVMTQSPKSLAVSLGERATINCKASENVGIFVSWYQQKPGQSPKLLIYGASNRYTGVPDRFSGSGSATDFTLTISSLQAEDVADYYCGQSHSYPLTFGQGTKLEIKRTVAAPSVFIFPPSDEQLKSGTASVVCLLNNFYPREAKVQWKVDNALQSGNSQESVTEQDSKDSTYSLSSTLTLSKADYEKHKVYACEVTHQGLSSPVTKSFNRGEC
heavy: EVQLVQSGAEVKKPGASVKVSCKTSGYTFTDYYMNWVRQAPGQSLEWMGIINPYQGGTSYTQKFKGRVTITVDKSASTAYMELSSLRSEDTAVYYCARHFYDSSYLTYSTMDYWGQGTTVTVSSASTKGPSVFPLAPSSKSTSGGTAALGCLVKDYFPEPVTVSWNSGALTSGVHTFPAVLQSSGLYSLSSVVTVPSSSLGTQTYICNVNHKPSNTKVDKKVEPKSCDKTHTCPPCPAPEAAGGPSVFLFPPKPKDTLMISRTPEVTCVVVDVSHEDPEVKFNWYVDGVEVHNAKTKPREEQYNSTYRVVSVLTVLHQDWLNGKEYKCKVSNKALPAPIEKTISKAKGQPREPQVCTLPPSREEMTKNQVSLSCAVKGFYPSDIAVEWESNGQPENNYKTTPPVLDSDGSFFLVSKLTVDKSRWQQGNVFSCSVMHEALHNHYTQKSLSLSPGK
chain: not shown
notes: Format 2 (Y body: DLL3 Fab-Fc hole + CD3 scFv-Fc knob)
binding result (DLL4 (ACRO, DL4-H5227)): no binding (tested: log[antibody, nM] 2 (100 nM))

Kd [1]: 39600 pM
koff [1]: 0.007 s⁻¹
kon [1]: 177000 M⁻¹ s⁻¹
binding result [2]: no binding
Kd [3]: 113 pM
koff [3]: 2.82e-05 s⁻¹
kon [3]: 249000 M⁻¹ s⁻¹
Kd [4]: 523 pM
koff [4]: 6.43e-05 s⁻¹
kon [4]: 123000 M⁻¹ s⁻¹
B2: hu110-S107E-hot Ig (bispecific antibody)
light 1: NIVMTQSPKSLAVSLGERATINCKASENVGIFVSWYQQKPGQSPKLLIYGASNRYTGVPDRFSGSGSATDFTLTISSLQAEDVADYYCGQSHSYPLTFGQGTKLEIKGGGGSSGAPRFLTRPKASVVSVGKDATLSCQIVGNPFPQVSWEKDKQPVTAGVRFRLAQDGDLYRLKILDLQLSDSGQYVCRARNAHGEAFACLGLQVDAEA
heavy 1: EVQLVQSGAEVKKPGASVKVSCKTSGYTFTDYYMNWVRQAPGQSLEWMGIINPYQGGTSYTQKFKGRVTITVDKSASTAYMELSSLRSEDTAVYYCARHFYDSSYLTYSTMDYWGQGTTVTVSSGGGGSGIPPKIECLPIDISIDEGKVLTVASAFTGEPTPEVTWSTGGRKIHSQEQGRFHIENTDDSTTLTIKDVQKQDGGLYTLTLRNEFGSDSATVNIHIRSIDKTHTCPPCPAPEAAGGPSVFLFPPKPKDTLMISRTPEVTCVVVDVSHEDPEVKFNWYVDGVEVHNAKTKPREEQYNSTYRVVSVLTVLHQDWLNGKEYKCKVSNKALPAPIEKTISKAKGQPREPQVCTLPPSREEMTKNQVSLSCAVKGFYPSDIAVEWESNGQPENNYKTTPPVLDSDGSFFLVSKLTVDKSRWQQGNVFSCSVMHEALHNHYTQKSLSLSPGK
heavy 2: not shown
light 2: not shown
notes: Format 1 (Hot-Ig, Titin/Obscurin-replaced DLL3 Fab), DLL3 x CD3
binding result (DLL4 (ACRO, DL4-H5227)): no binding (tested: log[antibody, nM] 2 (100 nM))

Kd [1]: 1500 pM
binding result [2]: no binding
Kd [3]: 119 pM
Kd [4]: 616 pM
B3: hu110-I2C-hot Ig (bispecific antibody)
light 1: B2 light 1
heavy 1: B2 heavy 1
heavy 2: not shown
light 2: not shown
notes: as for B2
binding result (DLL4 (ACRO, DL4-H5227)): no binding (tested: log[antibody, nM] 2 (100 nM))
